Source: patent publication US20170081400A1 (CEPHALON, published 2017)
Substitutions are numbered along the chain they refer to. Values belong to the binder of their own block, whether it stands above or below them.

How the values were obtained:
[1] = target: T1, human TL1A extracellular domain with N-terminal HIS and FLAG tag (human, UniProt O95150 72-251); assay: SPR run 3; supernatant on Protein A; TL1A 10 ug/mL; timepoint 590
T1 construct: whole entry named. ~70 kDa fraction purified by gel filtration
T1 sequence: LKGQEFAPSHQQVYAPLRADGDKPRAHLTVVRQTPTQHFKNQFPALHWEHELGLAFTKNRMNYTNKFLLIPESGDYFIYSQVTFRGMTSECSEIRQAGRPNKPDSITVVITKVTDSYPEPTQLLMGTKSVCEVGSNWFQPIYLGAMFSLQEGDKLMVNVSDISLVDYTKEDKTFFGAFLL
Text: (§1) 1.5. Antibody expression and antigen binding as determined by SPR. Using a CM5 sensor chip (GE Healthcare) Protein A (Pierce) was coupled to the chip surface using an amine coupling kit (GE Healthcare). Protein A was coupled on flow cell 1 and 2 (or alternatively 3 and 4) using a BIACORE® T200. […] The amount of supernatant or purified protein (as well as the concentration) injected during the capture stage varied between runs and is specified in the header of the Tables 3-11. At the end of injection of the supernatant or purified antibody the change in response units was measured. This value was reported as Capture Level in Tables 3-11. […] The response units were measured prior to the end of the dissociation phase. […] The sensorgrams were double referenced (flow cell 2 is subtracted from flow cell 1 and a buffer blank). As there were a large number of antibody variants to screen, these were screened across different runs (Tables 3-11). […] A summary of the conditions used in each run is below:
(§2) 2.1. […] In some experiment the antibodies were purified using Protein A chromatography (See 1.4) and purified antibodies were used in BIACORE® (GE Healthcare) experiments.

[2] = target: T1, human TL1A extracellular domain with …; assay: SPR run 3; supernatant on Protein A; TL1A 10 ug/mL; timepoint 59
Text: as §1, §2

B1: 320-259 (antibody, human IgG1, name in Kabat numbering, V domains shown)
VH: QVQLVQSGAEVKKPGASVKVSCKASGYTFTSYDINWVRQAPGQGLEWMGWLNPNSGNTGYAQKFQGRVTMTADRSTSTAYMELSSLRSEDTAVYYCAREVPETAAFEYWGQGTLVTVSS
VL: QSVLTQPPSVSGAPGQRVTISCTSSSSDIGSGLGVHWYQQLPGTAPKLLIEGYYNRPSGVPDRFSGSKSGTSASLTITGLLPEDEGDYYCQSYDGTLSALFGGGTKLTVLG
notes: human IgG1, lambda
TL1A Binding Level (Late) [1]: 179 RU | TL1A Binding Level (Early) [2]: 194 RU

B5: 320-271 (antibody, human IgG1, name in Kabat numbering, V domains shown)
VH: B1 VH
VL: B1 VL with S31A, G32H
notes: human IgG1, lambda
TL1A Binding Level (Late) [1]: 30 RU | TL1A Binding Level (Early) [2]: 106 RU

B6: 320-262 (antibody, human IgG1, name in Kabat numbering, V domains shown)
VH: B1 VH
VL: B1 VL with S31H
notes: human IgG1, lambda
TL1A Binding Level (Late) [1]: 190 RU | TL1A Binding Level (Early) [2]: 209 RU

B7: 320-264 (antibody, human IgG1, name in Kabat numbering, V domains shown)
VH: B1 VH
VL: B1 VL with S31L
notes: human IgG1, lambda
TL1A Binding Level (Late) [1]: 184 RU | TL1A Binding Level (Early) [2]: 199 RU

B8: 320-276 (antibody, human IgG1, name in Kabat numbering, V domains shown)
VH: B1 VH
VL: B1 VL with S31A, L33A
notes: human IgG1, lambda
TL1A Binding Level (Late) [1]: 215 RU | TL1A Binding Level (Early) [2]: 244 RU

B9: 320-269 (antibody, human IgG1, name in Kabat numbering, V domains shown)
VH: B1 VH
VL: B1 VL with S31A, G32Q
notes: human IgG1, lambda
TL1A Binding Level (Late) [1]: 93 RU | TL1A Binding Level (Early) [2]: 126 RU

B10: 320-260 (antibody, human IgG1, name in Kabat numbering, V domains shown)
VH: B1 VH
VL: B1 VL with S31Q
notes: human IgG1, lambda
TL1A Binding Level (Late) [1]: 165 RU | TL1A Binding Level (Early) [2]: 182 RU

B16: 320-275 (antibody, human IgG1, name in Kabat numbering, V domains shown)
VH: B1 VH
VL: B1 VL with S31A, G32Y
notes: human IgG1, lambda
TL1A Binding Level (Late) [1]: 10 RU | TL1A Binding Level (Early) [2]: 44 RU

B17: 320-261 (antibody, human IgG1, name in Kabat numbering, V domains shown)
VH: B1 VH
VL: B1 VL with S31D
notes: human IgG1, lambda
TL1A Binding Level (Late) [1]: 29 RU | TL1A Binding Level (Early) [2]: 86 RU

B20: 320-279 (antibody, human IgG1, name in Kabat numbering, V domains shown)
VH: B1 VH
VL: B1 VL with S31A, L33D
notes: human IgG1, lambda
TL1A Binding Level (Late) [1]: 128 RU | TL1A Binding Level (Early) [2]: 144 RU

B21: 320-265 (antibody, human IgG1, name in Kabat numbering, V domains shown)
VH: B1 VH
VL: B1 VL with S31W
notes: human IgG1, lambda
TL1A Binding Level (Late) [1]: 69 RU | TL1A Binding Level (Early) [2]: 168 RU

B23: 320-266 (antibody, human IgG1, name in Kabat numbering, V domains shown)
VH: B1 VH
VL: B1 VL with S31Y
notes: human IgG1, lambda
TL1A Binding Level (Late) [1]: 192 RU | TL1A Binding Level (Early) [2]: 218 RU

B24: 320-268 (antibody, human IgG1, name in Kabat numbering, V domains shown)
VH: B1 VH
VL: B1 VL with S31A, G32S
notes: human IgG1, lambda
TL1A Binding Level (Late) [1]: 7 RU | TL1A Binding Level (Early) [2]: 28 RU

B25: 320-281 (antibody, human IgG1, name in Kabat numbering, V domains shown)
VH: B1 VH
VL: B1 VL with S31A, L33K
notes: human IgG1, lambda
TL1A Binding Level (Late) [1]: 6 RU | TL1A Binding Level (Early) [2]: 22 RU

B28: 320-282 (antibody, human IgG1, name in Kabat numbering, V domains shown)
VH: B1 VH
VL: B1 VL with S31A, L33W
notes: human IgG1, lambda
TL1A Binding Level (Late) [1]: 16 RU | TL1A Binding Level (Early) [2]: 75 RU

More lines, now with the values ahead:

TL1A Binding Level (Late) [1]: 10 RU | TL1A Binding Level (Early) [2]: 34 RU
B2: 320-305 (antibody, human IgG1, name in Kabat numbering, V domains shown)
VH: B1 VH
VL: B1 VL with S31A, H36D
notes: human IgG1, lambda

TL1A Binding Level (Late) [1]: 13 RU | TL1A Binding Level (Early) [2]: 51 RU
B3: 320-299 (antibody, human IgG1, name in Kabat numbering, V domains shown)
VH: B1 VH
VL: B1 VL with S31A, V35L
notes: human IgG1, lambda

TL1A Binding Level (Late) [1]: 133 RU | TL1A Binding Level (Early) [2]: 147 RU
B4: 320-306 (antibody, human IgG1, name in Kabat numbering, V domains shown)
VH: B1 VH
VL: B1 VL with S31A, H36K
notes: human IgG1, lambda

TL1A Binding Level (Late) [1]: 104 RU | TL1A Binding Level (Early) [2]: 118 RU
B11: 320-296 (antibody, human IgG1, name in Kabat numbering, V domains shown)
VH: B1 VH
VL: B1 VL with S31A, V35D
notes: human IgG1, lambda

TL1A Binding Level (Late) [1]: 94 RU | TL1A Binding Level (Early) [2]: 111 RU
B12: 320-292 (antibody, human IgG1, name in Kabat numbering, V domains shown)
VH: B1 VH
VL: B1 VL with S31A, G34Y
notes: human IgG1, lambda

TL1A Binding Level (Late) [1]: 86 RU | TL1A Binding Level (Early) [2]: 104 RU
B13: 320-293 (antibody, human IgG1, name in Kabat numbering, V domains shown)
VH: B1 VH
VL: B1 VL with S31A, V35A
notes: human IgG1, lambda

TL1A Binding Level (Late) [1]: 100 RU | TL1A Binding Level (Early) [2]: 114 RU
B14: 320-298 (antibody, human IgG1, name in Kabat numbering, V domains shown)
VH: B1 VH
VL: B1 VL with S31A, V35K
notes: human IgG1, lambda

TL1A Binding Level (Late) [1]: 73 RU | TL1A Binding Level (Early) [2]: 106 RU
B15: 320-308 (antibody, human IgG1, name in Kabat numbering, V domains shown)
VH: B1 VH
VL: B1 VL with S31A, H36W
notes: human IgG1, lambda

TL1A Binding Level (Late) [1]: 61 RU | TL1A Binding Level (Early) [2]: 79 RU
B18: 320-294 (antibody, human IgG1, name in Kabat numbering, V domains shown)
VH: B1 VH
VL: B1 VL with S31A, V35S
notes: human IgG1, lambda

TL1A Binding Level (Late) [1]: 32 RU | TL1A Binding Level (Early) [2]: 71 RU
B19: 320-303 (antibody, human IgG1, name in Kabat numbering, V domains shown)
VH: B1 VH
VL: B1 VL with S31A, H36S
notes: human IgG1, lambda

TL1A Binding Level (Late) [1]: 62 RU | TL1A Binding Level (Early) [2]: 70 RU
B22: 320-310 (antibody, human IgG1, name in Kabat numbering, V domains shown)
VH: B1 VH
VL: B1 VL with S31A, Q91A
notes: human IgG1, lambda

TL1A Binding Level (Late) [1]: 94 RU | TL1A Binding Level (Early) [2]: 109 RU
B26: 320-295 (antibody, human IgG1, name in Kabat numbering, V domains shown)
VH: B1 VH
VL: B1 VL with S31A, V35Q
notes: human IgG1, lambda

TL1A Binding Level (Late) [1]: 82 RU | TL1A Binding Level (Early) [2]: 103 RU
B27: 320-304 (antibody, human IgG1, name in Kabat numbering, V domains shown)
VH: B1 VH
VL: B1 VL with S31A, H36Q
notes: human IgG1, lambda

TL1A Binding Level (Late) [1]: 40 RU | TL1A Binding Level (Early) [2]: 47 RU
B29: 320-309 (antibody, human IgG1, name in Kabat numbering, V domains shown)
VH: B1 VH
VL: B1 VL with S31A, H36Y
notes: human IgG1, lambda
